According to article PMC4383501, “Computational Selection of RNA Aptamer against Angiopoietin-2 and Experimental Evaluation”:

Assays:
[1] = target: T1, Angiopoietin-2 (Ang2), active human (human, UniProt O15123 19-496); assay: SPR; kon 6.03e3 M-1s-1; koff 0.61e-3 s-1; SPR imaging, biotinylated RNA on streptavidin/BAT-PEG chip, 0.5 uM Ang2 in TBS pH 7.4, 9 min association, 6 min TBS rinse; temperature not stated; conditions: protein: commercial; label: 5' biotin; single strand
[2] = target: T1, Angiopoietin-2 (Ang2), active human; assay: SPR; kon 8.22e3 M-1s-1; koff 0.97e-3 s-1; SPR imaging, biotinylated RNA on streptavidin/BAT-PEG chip, 0.5 uM Ang2 in TBS pH 7.4, 9 min association, 6 min TBS rinse; temperature not stated; conditions: protein: commercial; label: 5' biotin; single strand
[3] = target: T1, Angiopoietin-2 (Ang2), active human; assay: SPR; kon 1.66e3 M-1s-1; koff 4.99e-3 s-1; described as very weak, partly nonspecific adsorption; SPR imaging, biotinylated RNA on streptavidin/BAT-PEG chip, 0.5 uM Ang2 in TBS pH 7.4, 9 min association, 6 min TBS rinse; temperature not stated; conditions: protein: commercial; label: 5' biotin; single strand
Angiopoietin-2 (human) = Angiopoietin-2 (human) (Homo sapiens (Human), UniProt O15123 19-496); assay: SPR; TBS pH 7.4, 25 C; conditions: label: 5'-biotin (5'-A5 is a spacer)
[4] = target: T1, Angiopoietin-2 (Ang2), active human; assay: SPR; kon 4.07e3 M-1s-1; koff 0.79e-3 s-1; SPR imaging, biotinylated RNA on streptavidin/BAT-PEG chip, 0.5 uM Ang2 in TBS pH 7.4, 9 min association, 6 min TBS rinse; temperature not stated; conditions: protein: commercial; label: 5' biotin; single strand
[5] = target: T1, Angiopoietin-2 (Ang2), active human; assay: SPR; kon 10.02e3 M-1s-1; koff 1.39e-3 s-1; SPR imaging, biotinylated RNA on streptavidin/BAT-PEG chip, 0.5 uM Ang2 in TBS pH 7.4, 9 min association, 6 min TBS rinse; temperature not stated; conditions: protein: commercial; label: 5' biotin; single strand

T1 sequence (O15123 19-496): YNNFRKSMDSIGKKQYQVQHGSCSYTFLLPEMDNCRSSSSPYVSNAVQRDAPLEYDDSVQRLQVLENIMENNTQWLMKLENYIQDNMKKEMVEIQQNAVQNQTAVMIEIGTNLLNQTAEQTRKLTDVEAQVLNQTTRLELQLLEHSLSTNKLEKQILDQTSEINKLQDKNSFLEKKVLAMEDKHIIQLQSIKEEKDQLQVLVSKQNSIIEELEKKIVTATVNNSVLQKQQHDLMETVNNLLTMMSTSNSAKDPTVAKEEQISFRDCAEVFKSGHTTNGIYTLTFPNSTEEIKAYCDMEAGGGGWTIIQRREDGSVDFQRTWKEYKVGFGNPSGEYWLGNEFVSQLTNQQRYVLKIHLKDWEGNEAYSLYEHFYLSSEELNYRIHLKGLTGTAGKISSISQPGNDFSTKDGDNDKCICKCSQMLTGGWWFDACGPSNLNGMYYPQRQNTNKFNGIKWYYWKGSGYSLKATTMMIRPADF
Angiopoietin-2 (human), sequence (O15123 19-496): as above

**Q.** How did the Ka [1] turn out when AAAAAGAGGACGAUGCCGACUAGCCUCAUCAGCUCAUGUCCCCCUC (ssRNA) [Seq15_12_35 (biotin-A5)] was run?
**A.** 9.89 10^6 M^-1

**Q.** With AAAAAGAGGACGAUGCGGAUUAGCCUCAUCAGCUCAUGUGCCGCUC (ssRNA) [Seq15_15_38 (biotin-A5)] as the binder, how does the Ka [2] read?
**A.** 8.47 10^6 M^-1

**Q.** Which Ka [3] does the source give for AAAAAACUCGAACAUUUCCACUAACCAACCAUACUAAAGCACCGC (ssRNA) [Seq16 (biotin-A5), Ang1-specific aptamer] here?
**A.** 0.33 10^6 M^-1

**Q.** For AAAAAACUCGAACAUUUCCACUAACCAACCAUACUAAAGCACCGC (ssRNA) [Seq16 (Ang1 aptamer / negative control)], which Kd (Angiopoietin-2 (human)) is on record?
**A.** 3030 nM

**Q.** With AAAAAUUAACCAUCAGAUCAUGGCCCCUGCCCUCUCAAGCACCAC (ssRNA) [Seq2_12_35 (biotin-A5)] as the binder, how does the Ka [4] read?
**A.** 5.15 10^6 M^-1

**Q.** Which Ka [5] does the source give for AAAAAACUAGCCUCAUCAGCUCAUGUGCCCCUCCGCCUGGAUCAC (ssRNA) [Seq1 (biotin-A5)] here?
**A.** 7.23 10^6 M^-1

**Q.** How did the Kd (Angiopoietin-2 (human)) turn out when AAAAAACUAGCCUCAUCAGCUCAUGUGCCCCUCCGCCUGGAUCAC (ssRNA) [Seq1] was run?
**A.** 138 nM
